Experimental data published in patent US12104181B2, “Compositions and methods for treating viral infections targeting TRIM7” (THE BOARD OF REGENTS OF THE UNIVERSITY OF TEXAS SYSTEM, priority 2021, dated 2024).

B1: RNF145: human RING type E3 ligase expressed from lentiviral vector (protein, UniProt Q96MT1 1-663, looked up)
RING finger protein 145: MAAKEKLEAVLNVALRVPSIMLLDVLYRWDVSSFFQQIQRSSLSNNPLFQYKYLALNMHYVGYILSVVLLTLPRQHLVQLYLYFLTALLLYAGHQISRDYVRSELEFAYEGPMYLEPLSMNRFTTALIGQLVVCTLCSCVMKTKQIWLFSAHMLPLLARLCLVPLETIVIINKFAMIFTGLEVLYFLGSNLLVPYNLAKSAYRELVQVVEVYGLLALGMSLWNQLVVPVLFMVFWLVLFALQIYSYFSTRDQPASRERLLFLFLTSIAECCSTPYSLLGLVFTVSFVALGVLTLCKFYLQGYRAFMNDPAMNRGMTEGVTLLILAVQTGLIELQVVHRAFLLSIILFIVVASILQSMLEIADPIVLALGASRDKSLWKHFRAVSLCLFLLVFPAYMAYMICQFFHMDFWLLIIISSSILTSLQVLGTLFIYVLFMVEEFRKEPVENMDDVIYYVNGTYRLLEFLVALCVVAYGVSETIFGEWTVMGSMIIFIHSYYNVWLRAQLGWKSFLLRRDAVNKIKSLPIATKEQLEKHNDICAICYQDMKSAVITPCSHFFHAGCLKKWLYVQETCPLCHCHLKNSSQLPGLGTEPVLQPHAGAEQNVMFQEGTEPPGQEHTPGTRIQEGSRDNNEYIARRPDNQEGAFDPKEYPHSAKDEAHPVESA
B2: RI NG1: human RING type E3 ligase expressed from lentiviral vector (protein, UniProt Q06587 1-406, looked up)
E3 ubiquitin-protein ligase …: MTTPANAQNASKTWELSLYELHRTPQEAIMDGTEIAVSPRSLHSELMCPICLDMLKNTMTTKECLHRFCSDCIVTALRSGNKECPTCRKKLVSKRSLRPDPNFDALISKIYPSREEYEAHQDRVLIRLSRLHNQQALSSSIEEGLRMQAMHRAQRVRRPIPGSDQTTTMSGGEGEPGEGEGDGEDVSSDSAPDSAPGPAPKRPRGGGAGGSSVGTGGGGTGGVGGGAGSEDSGDRGGTLGGGTLGPPSPPGAPSPPEPGGEIELVFRPHPLLVEKGEYCQTRYVKTTGNATVDHLSKYLALRIALERRQQQEAGEPGGPGGGASDTGGPDGCGGEGGGAGGGDGPEEPALPSLEGVSEKQYTIYIAPGGGAFTTLNGSLTLELVNEKFWKVSRPLELCYAPTKDPK
B3: RNF166: human RING type E3 ligase expressed from lentiviral vector (protein, UniProt Q96A37 1-237, looked up)
E3 ubiquitin-protein ligase …: MAMFRSLVASAQQRQPPAGPAGGDSGLEAQYTCPICLEVYHRPVAIGSCGHTFCGECLQPCLQVPSPLCPLCRLPFDPKKVDKATHVEKQLSSYKAPCRGCNKKVTLAKMRVHISSCLKVQEQMANCPKFVPVVPTSQPIPSNIPNRSTFACPYCGARNLDQQELVKHCVESHRSDPNRVVCPICSAMPWGDPSYKSANFLQHLLHRHKFSYDTFVDYSIDEEAAFQAALALSLSEN
modifications: lentiviral expression
notes: human RING type E3 ligase expressed from lentiviral vector
B4: RNF151: human RING type E3 ligase expressed from lentiviral vector (protein, UniProt Q2KHN1 1-245, looked up)
RING finger protein 151: MGGGYDLNLFASPPDSNFVCSVCHGVLKRPARLPCSHIFCKKCILRWLARQKTCPCCRKEVKRKKVVHMNKLRKTIGRLEVKCKNADAGCIVTCPLAHRKGHQDSCPFELTACPNEGCTSQVPRGTLAEHRQHCQQGSQQRCPLGCGATLDPAERARHNCYRELHNAWSVRQERRRPLLLSLLRRVRWLDQATSVVRRELAELSNFLEEDTALLEGAPQEEAEAAPEGNVGAEVVGEPRANIPCK
B5: MARCH1: human RING type E3 ligase expressed from lentiviral vector (protein, UniProt Q8TCQ1 1-289, looked up)
E3 ubiquitin-protein ligase …: MLGWCEAIARNPHRIPNNTRTPEISGDLADASQTSTLNEKSPGRSASRSSNISKASSPTTGTAPRSQSRLSVCPSTQDICRICHCEGDEESPLITPCRCTGTLRFVHQSCLHQWIKSSDTRCCELCKYDFIMETKLKPLRKWEKLQMTTSERRKIFCSVTFHVIAITCVVWSLYVLIDRTAEEIKQGNDNGVLEWPFWTKLVVVAIGFTGGLVFMYVQCKVYVQLWRRLKAYNRVIFVQNCPDTAKKLEKNFSCNVNTDIKDAVVVPVPQTGANSLPSAEGGPPEVVSV
B6: RNF135: human RING type E3 ligase expressed from lentiviral vector (protein, UniProt Q8IUD6 1-432, looked up)
E3 ubiquitin-protein ligase …: MAGLGLGSAVPVWLAEDDLGCIICQGLLDWPATLPCGHSFCRHCLEALWGARDARRWACPTCRQGAAQQPHLRKNTLLQDLADKYRRAAREIQAGSDPAHCPCPGSSSLSSAAARPRRRPELQRVAVEKSITEVAQELTELVEHLVDIVRSLQNQRPLSESGPDNELSILGKAFSSGVDLSMASPKLVTSDTAAGKIRDILHDLEEIQEKLQESVTWKEAPEAQMQGELLEAPSSSSCPLPDQSHPALRRASRFAQWAIHPTFNLKSLSCSLEVSKDSRTVTVSHRPQPYRWSCERFSTSQVLCSQALSSGKHYWEVDTRNCSHWAVGVASWEMSRDQVLGRTMDSCCVEWKGTSQLSAWHMVKETVLGSDRPGVVGIWLNLEEGKLAFYSVDNQEKLLYECTISASSPLYPAFWLYGLHPGNYLIIKQVKV
modifications: lentiviral expression
notes: as for B3
B7: RNF152: human RING type E3 ligase expressed from lentiviral vector (protein, UniProt Q8N8N0 1-203, looked up)
E3 ubiquitin-protein ligase …: METLSQDSLLECQICFNYYSPRRRPKLLDCKHTCCSVCLQQMRTSQKDVRCPWCRGVTKLPPGFSVSQLPDDPEVLAVIAIPHTSEHTPVFIKLPSNGCYMLPLPISKERALLPGDMGCRLLPGSQQKSVTVVTIPAEQQPLQGGAPQEAVEEEQDRRGVVKSSTWSGVCTVILVACVLVFLLGIVLHNMSCISKRFTVISCG
modifications: lentiviral expression
notes: as for B3
B8: RNF182: human RING type E3 ligase expressed from lentiviral vector (protein, UniProt Q8N6D2 1-247, looked up)
E3 ubiquitin-protein ligase …: MASQPPEDTAESQASDELECKICYNRYNLKQRKPKVLECCHRVCAKCLYKIIDFGDSPQGVIVCPFCRFETCLPDDEVSSLPDDNNILVNLTCGGKGKKCLPENPTELLLTPKRLASLVSPSHTSSNCLVITIMEVQRESSPSLSSTPVVEFYRPASFDSVTTVSHNWTVWNCTSLLFQTSIRVLVWLLGLLYFSSLPLGIYLLVSKKVTLGVVFVSLVPSSLVILMVYGFCQCVCHEFLDCMAPPS
B9: RNF180: human RING type E3 ligase expressed from lentiviral vector (protein, UniProt Q86T96 1-592, looked up)
E3 ubiquitin-protein ligase …: MKRSKELITKNHSQEETSILRCWKCRKCIASSGCFMEYLENQVIKDKDDSVDAQNICHVWHMNVEALPEWISCLIQKAQWTVGKLNCPFCGARLGGFNFVSTPKCSCGQLAAVHLSKSRTDYQPTQAGRLMRPSVKYLSHPRVQSGCDKEALLTGGGSENRNHRLLNMARNNNDPGRLTEALCLEVRPTYFEMKNEKLLSKASEPKYQLFVPQLVTGRCATRAFHRKSHSLDLNISEKLTLLPTLYEIHSKTTAYSRLNETQPIDLSGLPLQSSKNSYSFQNPSSFDPSMLLQRFSVAPHETQTQRGGEFQCGLEAASVYSDHTNTNNLTFLMDLPSAGRSMPEASDQEEHLSPLDFLHSANFSLGSINQRLNKRERSKLKNLRRKQRRRERWLQKQGKYSGVGLLDHMTLNNEMSTDEDNEYAEEKDSYICAVCLDVYFNPYMCYPCHHIFCEPCLRTLAKDNPSSTPCPLCRTIISRVFFQTELNNATKTFFTKEYLKIKQSFQKSNSAKWPLPSCRKAFHLFGGFRRHAAPVTRRQFPHGAHRMDYLHFEDDSRGWWFDMDMVIIYIYSVNWVIGFIVFCFLCYFFFPF
modifications: lentiviral expression
notes: as for B3

System: coxsackievirus B3 (CVB3-GFP)
Format: cell-based
Conditions: HeLa cells, GFP-positive cells within RFP-positive gate, replicate R1

Row | Molecule | Percent Infected R1 [%]
1 | B1 | 94.2
2 | B2 | 92.9
3 | B3 | 94.5
4 | B4 | 92.8
5 | B5 | 97.7
6 | B6 | 86.2
7 | B7 | 97.4
8 | B8 | 97.9
9 | B9 | 93.2

Same assay, conditions: HeLa cells, replicate R1

Row | Molecule | Z score R1
10 | B1 | 0.07
11 | B2 | 0.05
12 | B3 | 0.08
13 | B4 | 0.05
14 | B5 | 0.12
15 | B6 | −0.03
16 | B7 | 0.11
17 | B8 | 0.12
18 | B9 | 0.06
